These results are taken from paper PMC10917151 (Nature chemical biology, 2023).

One test has as its target VHL-LgBiT (human) (UniProt P40337).
The target of test [1] is endogenous BRD4 in HEK293T cells (Homo sapiens, UniProt O60885). In words: Western blot of endogenous BRD4 degradation. In kind it is cell-based. The conditions noted are these: 18 h. (In western blotting, separated proteins are transferred to a membrane and probed.)

Sequence of VHL-LgBiT (human) (P40337 whole entry): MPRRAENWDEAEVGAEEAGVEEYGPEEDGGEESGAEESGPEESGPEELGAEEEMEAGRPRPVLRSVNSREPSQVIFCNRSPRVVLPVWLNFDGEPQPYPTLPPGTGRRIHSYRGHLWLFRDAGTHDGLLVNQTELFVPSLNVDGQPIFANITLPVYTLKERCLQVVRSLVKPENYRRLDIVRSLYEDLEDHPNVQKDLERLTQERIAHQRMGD

Take SmBiT-BRD4^BD1 (domain or fragment): in the test with VHL-LgBiT (human), the HiBiT assay: DC50 of degradation of HiBiT-tagged BRD4^BD1 in HEK293T with CIP-2 came out at 17 nM and the HiBiT assay: Dmax of degradation of HiBiT-tagged BRD4^BD1 in HEK293T with CIP-2 came to 93%.

In the case of `CC(=O)N[C@H](C(=O)N1C[C@H](O)C[C@H]1C(=O)NCc1ccc(-c2scnc2C)cc1)C(C)(C)C` [VH032], the “endogenous BRD4 degradation (Western blot)” value in test [1] is listed as “no degradation”.

With `Cc1ncsc1-c1ccc(CNC(=O)[C@@H]2C[C@@H](O)CN2C(=O)[C@@H](NC(=O)COCCOCCOCCNC(=O)C[C@@H]2N=C(c3ccc(Cl)cc3)c3c(sc(C)c3C)-n3c(C)nnc32)C(C)(C)C)cc1` [MZ1], the “endogenous BRD4 degradation at 1 μM (Western blot)” value in test [1] (1 μM) is recorded as “complete BRD4 removal”.
